pKd: −log10 of the molar value.

Kd data for 91 substances are collected here from US20220227840A1.

In one experiment the target is tissue factor (TF) extracellular domains (UniProt P13726). Description: SPR, TF on chip.
Conditions: not given
Target sequence in this assay (P13726 33-251 limits assumed): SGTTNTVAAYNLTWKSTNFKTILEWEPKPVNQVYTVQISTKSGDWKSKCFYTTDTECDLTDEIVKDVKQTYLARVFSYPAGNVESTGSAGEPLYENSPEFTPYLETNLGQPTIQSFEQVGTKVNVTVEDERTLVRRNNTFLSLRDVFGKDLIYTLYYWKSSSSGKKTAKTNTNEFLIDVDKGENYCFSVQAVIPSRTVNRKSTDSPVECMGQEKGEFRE
For “D3H44 Fab H:D146G_Q179K L:Q124E_Q160E_T180E”, the pKd is 10.62.
“D3H44 Fab H:D146G_Q179R L:Q124E_Q160E_T178D”: the pKd was 10.09.
Still for that read-out and setting: the figure for D3H44 Fab H:F174V_P175S_S188G L:S176L is 10.40; for “D3H44 Fab H:K145T_Q179D_S188F L:V133A_Q160K_T178R” it is 10.07.
The substance “D3H44 Fab H:K145T_Q179D_S188L L:Q160K_T178R” gave a pKd of 10.15.
Still for that read-out and setting: then “D3H44 Fab H:L143A_D146G_Q179R L:Q124E_V133W_Q160E_T180E”, with 10.06.
Same read-out and setting: then D3H44 Fab H:L143E_K145T L:Q160K_T178R, with 10.22; and “D3H44 Fab H:Q39D_A139G_V190A L:Q38R_L135W”, with 10.60; and D3H44 Fab H:S188L_V190Y L:V133S, with 10.37.
Substance “D3H44 WT Fab with FLAG-tagged light chain” gave a pKd of 10.21.
On the same count and under the same terms, the figure for D3H44 WT Fab with HA-tagged light chain is 10.28.

For a further experiment the target is unchanged. Put plainly: SPR, TF on chip.
Conditions: not given
This is another data set of the same source.
Target sequence in this assay (P13726 33-251 limits assumed): as above
The substance D3H44 Fab H:A139G_V190A L:L135W had a pKd of 10.23.
On to D3H44 Fab H:A139I L:F118W_V133S, for which the pKd was 10.28.
Still for that read-out and setting: the figure for “D3H44 Fab H:A139I_K145T_D146G_Q179E_S188G_V190S L:F116A_V133G_S176F_T178A” is 10.39; for “D3H44 Fab H:D146G_Q179K L:Q124E_Q160E_T178D” it is 10.28; for “D3H44 Fab H:D146G_Q179K L:Q124E_Q160E_T180E” it is 10.61.
The same measure, in the same setting: then “D3H44 Fab H:D146G_Q179K L:Q124E_V133W_Q160E_T180E”, with 10.08.
Regarding “D3H44 Fab H:D146G_Q179R L:Q124E_Q160E_T178D”, the pKd was 10.09.
Still for that read-out and setting: then “D3H44 Fab H:D146G_Q179R L:Q124E_Q160E_T180E”, with 10.11; and “D3H44 Fab H:D146G_Q179R L:Q124E_V133W_Q160E_T180E”, with 10.20.
Substance “D3H44 Fab H:D146G_S186R L:Q124E_Q160E_T178D” had a pKd of 10.29.
Same read-out and setting: the figure for “D3H44 Fab H:D146G_S186R L:Q124E_Q160E_T180E” is 10.17; for D3H44 Fab H:F100M_W103V L:P44W_L89W it is 8.81.
The same measure, in the same setting: the figure for D3H44 Fab H:F174G_S188A L:WT is 10.10; for D3H44 Fab H:F174V_P175S_S188G L:S176L it is 10.40; for D3H44 Fab H:F174V_S188L L:S176G it is 10.02.
Same read-out and setting: the figure for D3H44 Fab H:F174V_S188L L:V133S is 10.70; for D3H44 Fab H:F174V_S188L L:WT it is 10.42.
D3H44 Fab H:F174W_S188L L:S176G had a pKd of 10.81.
Same read-out and setting: then D3H44 Fab H:F174W_S188L L:V133S, with 10.76; and D3H44 Fab H:F174W_S188L L:WT, with 10.57; and “D3H44 Fab H:K145E_D146G_Q179D_S188F L:V133A_Q160K_T178R”, with 10.66.
In the case of “D3H44 Fab H:K145E_D146G_Q179D_S188L L:Q160K_T178R”, the pKd is 10.38.
On the same count and under the same terms, then D3H44 Fab H:K145L_Q179E L:S131K, with 10.18; and “D3H44 Fab H:K145T_Q179D_S188F L:Q160K_T178R”, with 9.95; and “D3H44 Fab H:K145T_Q179D_S188F L:V133A_Q160K_T178R”, with 10.07.
Still for that read-out and setting: then “D3H44 Fab H:K145T_Q179D_S188L L:Q160K_T178R”, with 10.15.
Still for that read-out and setting: then “D3H44 Fab H:K145T_Q179D_S188L L:V133A_Q160K_T178R”, with 10.37.
For D3H44 Fab H:L45W L:Y87G, the pKd is 9.71.
“D3H44 Fab H:L143A_D146G_Q179R L:Q124E_V133W_Q160E_T180E” had a pKd of 10.06.
On the same count and under the same terms, the figure for D3H44 Fab H:L143E_K145T L:Q124R is 10.22.
The same measure, in the same setting: the figure for “D3H44 Fab H:L143E_K145T L:Q124R_Q160K_T178R” is 10.11; for D3H44 Fab H:L143E_K145T L:Q160K_T178R it is 10.63.
Still for that read-out and setting: then D3H44 Fab H:L143K_D146G L:Q124E_V133D, with 10.61.
In turn, D3H44 Fab H:Q39D L:Q38R_F98W gave a pKd of 9.90.
On the same count and under the same terms, then “D3H44 Fab H:Q39D_A139G_V190A L:Q38R_L135W”, with 9.93.
Still for that read-out and setting: the figure for D3H44 Fab H:Q39E L:Q38N_T85K is 10.70; for D3H44 Fab H:Q39E L:Q38N_T85K_F98W it is 10.46; for D3H44 Fab H:Q39E L:Q38R_F98W it is 9.79.
The same measure, in the same setting: then D3H44 Fab H:Q39K L:Q38N_T85E, with 10.67.
Turning to D3H44 Fab H:Q39K L:Q38N_T85E_F98W, the pKd is 10.87.
Take D3H44 Fab H:Q39M L:Q38M: the pKd was 10.56.
On the same count and under the same terms, the figure for D3H44 Fab H:Q39R L:Q38D is 10.64; for D3H44 Fab H:Q39R L:Q38D_F98W it is 9.90; for D3H44 Fab H:Q39R L:Q38E_F98W it is 9.75.
On the same count and under the same terms, then “D3H44 Fab H:S186K_S188H_V190G L:F118W_Q124E_V133S_S176A_T178S_T180E”, with 10.21; and D3H44 Fab H:S186R L:Q124E_Q160E_T178D, with 9.90; and D3H44 Fab H:S188L L:S176G, with 10.06.
Still for that read-out and setting: the figure for D3H44 Fab H:S188L L:V133S is 10.84; for D3H44 Fab H:S188L L:WT it is 10.47; for D3H44 Fab H:S188L_V190Y L:V133S it is 10.37.
Substance “D3H44 Fab H:V37A_Q39E_W103V L:Q38N_P44W_T85K” showed a pKd of 9.26.
“D3H44 Fab H:V37A_Q39K_W103H L:Q38N_P44W_T85E” had a pKd of 9.08.
The same measure, in the same setting: then D3H44 Fab H:V37A_Q39R_W103V L:Q38E_P44W, with 9.01; and D3H44 Fab H:V37E L:L89R_F98T, with 8.62; and D3H44 Fab H:V37I_Q39D L:Q38R_F98W, with 9.75.
The same measure, in the same setting: the figure for D3H44 Fab H:V37I_Q39E L:Q38N_T85K is 10.74; for D3H44 Fab H:V37I_Q39E L:Q38N_T85K_F98W it is 9.90; for D3H44 Fab H:V37I_Q39E L:Q38R_F98W it is 10.14.
The same measure, in the same setting: then D3H44 Fab H:V37I_Q39R L:Q38D_F98W, with 10.00.
Substance D3H44 Fab H:V37I_Q39R L:Q38E had a pKd of 9.91.
On the same count and under the same terms, then D3H44 Fab H:V37I_Q39R L:Q38E_F98W, with 9.84; and D3H44 Fab H:V37I_W103H L:P44W_F98W, with 9.62; and D3H44 Fab H:V37S_A93K L:F98Y, with 9.38.
The same measure, in the same setting: the figure for D3H44 Fab H:V37T_A93Q_W103T L:P44W_F98W is 8.88.
As to D3H44 Fab H:V37T_A93Q_W103V L:P44W_F98W, the pKd is 9.72.
The substance D3H44 Fab H:V37W L:F98A showed a pKd of 8.46.
On the same count and under the same terms, the figure for D3H44 Fab H:V37W_A93V L:F98A is 9.16; for D3H44 Fab H:V37W_F100W_W103L L:F98A it is 8.91; for D3H44 Fab H:V37W_Q39D L:Q38R_F98A it is 8.76.
The substance D3H44 Fab H:V37W_Q39D_W103F L:Q38R_F98L had a pKd of 9.03.
On the same count and under the same terms, then D3H44 Fab H:V37W_Q39D_W103H L:Q38R_F98L, with 8.10.
Still for that read-out and setting: then D3H44 Fab H:V37W_Q39E L:Q38N_T85K_F98A, with 9.06; and D3H44 Fab H:V37W_Q39E L:Q38R_F98A, with 9.04.
Still for that read-out and setting: then “D3H44 Fab H:V37W_Q39E_W103F L:Q38N_T85K_F98L”, with 8.60; and D3H44 Fab H:V37W_Q39E_W103F L:Q38R_F98L, with 9.76.
D3H44 Fab H:V37W_Q39K L:Q38N_T85E_F98A showed a pKd of 8.75.
On the same count and under the same terms, the figure for “D3H44 Fab H:V37W_Q39K_W103F L:Q38N_T85E_F98L” is 9.01; for D3H44 Fab H:V37W_Q39R L:Q38E_F98A it is 8.50.
Same read-out and setting: the figure for D3H44 Fab H:V37W_Q39R_W103F L:Q38E_F98L is 8.95; for D3H44 Fab H:V37W_Q39R_W103H L:Q38D_F98L it is 8.25.
As to D3H44 Fab H:V37W_Q39R_W103H L:Q38E_F98L, the pKd was 8.52.
Substance D3H44 Fab H:V37W_W103F L:F98L showed a pKd of 9.02.
Same read-out and setting: the figure for D3H44 Fab H:W103H L:P44W_F98W is 9.67; for D3H44 Fab H:W103H L:P44W_L89W_F98A it is 8.47; for D3H44 Fab H:W103V L:P44W_F98W it is 9.76.
Same read-out and setting: then D3H44 Fab H:W103V L:P44W_L89W_F98A, with 8.38; and D3H44 Fab H:WT L:F98W, with 10.96; and D3H44 Fab H:WT L:L89F_F98W, with 9.62.
On the same count and under the same terms, then Wild-type anti-TF D3H44 Fab, with 10.25.

The target is the same in the next experiment.
Assay: not given
Particulars: Fab.
Target sequence in this assay (P13726 33-251): as the sequence (P13726 33-251 limits assumed) above
Regarding D3H44 Fab H:V37W L:F98A, the pKd was 9.01.

In general, pKd refers to the Kd on a negative log10 scale, so that one unit is a factor of ten. Low readings indicate a high Kd, high ones a low Kd.
